These results are taken from US20160272691A1, “COMPOSITIONS AND METHODS FOR TREATING CONDITIONS ASSOCIATED WITH y-HERPESVIRUSES” (NDSU RESEARCH FOUNDATION, priority 2013, published 2016).

T1: γHV68 M11 residues 1-136 (murine γHV68), P89884
T1 chain: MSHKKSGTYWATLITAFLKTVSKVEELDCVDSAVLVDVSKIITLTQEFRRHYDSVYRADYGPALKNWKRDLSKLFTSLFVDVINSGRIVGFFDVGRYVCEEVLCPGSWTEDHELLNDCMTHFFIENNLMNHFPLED

T2: His6-tagged Bcl-XL (residues 1-208, N52D, N66D) (human), Q07817
T2 chain: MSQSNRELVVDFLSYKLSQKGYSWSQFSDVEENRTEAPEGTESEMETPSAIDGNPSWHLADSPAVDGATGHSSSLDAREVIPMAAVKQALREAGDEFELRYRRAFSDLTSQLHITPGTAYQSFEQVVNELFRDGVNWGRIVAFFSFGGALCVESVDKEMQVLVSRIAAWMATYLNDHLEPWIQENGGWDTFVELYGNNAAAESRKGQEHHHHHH

The target of the first experiment is T1, γHV68 M11 residues 1-136 (murine …). Nature of the experiment: ITC.
With GSGTMENLSRRAKVTGDLFDIMSGQT (modifications not checked) [Beclin 1 BH3D-derived peptide L116A], the fold reduction of binding affinity versus WT BH3D was greater than 70 fold.
Molecule GSGTMENLSRRLKVTGDLFDIMSGQT (modifications not checked) [Beclin 1 BH3D peptide, wild type] registered a fold difference in TΔSapp versus binding to Bcl-XL of 4 fold and a fold difference in ΔHapp versus binding to Bcl-XL of 2 fold.
Consider GSGTMENLSRRLKVTEDLFDIMSGQT (modifications not checked) [Beclin 1 BH3D-derived peptide G120E], for which the fold reduction of binding affinity versus WT BH3D turned out to be 26 fold.
Molecule GSGTMENASRRLKVTGDLFDIMSGQT (modifications not checked) [Beclin 1 BH3D-derived peptide L112A] returned a fold reduction of binding versus WT BH3D of 3 fold.
As to GSGTMENLSRRLKVTGDLADIMSGQT (modifications not checked) [Beclin 1 BH3D-derived peptide F123A], the fold weakening of binding versus WT BH3D was found to be 4 fold.
For GSGTMENLSRRLAVTGDLFDIMSGQT (modifications not checked) [Beclin 1 BH3D-derived peptide K117A], the fold improvement of binding versus WT BH3D is 2 fold.
GSGTMENLSRRLKVTEALFDIMSGQT (modifications not checked) [Beclin 1 BH3D-derived G120E+D121A double mutant peptide] yielded a fold better affinity versus the G120E peptide of 5.7 fold and a fold weaker affinity versus WT BH3D of 4.7 fold.

The target of another experiment is T2, His6-tagged Bcl-XL (residues 1-208, …). Nature of the experiment: ITC. (In general: Isothermal titration calorimetry measures the heat released or taken up as one component is titrated into another.)
GSGTMENLSRRLKVTGDLADIMSGQT (modifications not checked) [Beclin 1 BH3D-derived peptide F123A] gave a fold weakening of binding versus WT BH3D of 10 fold.
GSGTMENLSRRLAVTGDLFDIMSGQT (modifications not checked) [Beclin 1 BH3D-derived peptide K117A] registered a fold weakening of binding versus WT BH3D of 10 fold.

The target in the next experiment is Bcl-2, P10415. Nature of the experiment: ITC (Table 4; quantity and unit in Table 1).
Bcl-2, P10415, sequence (P10415 1-211 limits assumed): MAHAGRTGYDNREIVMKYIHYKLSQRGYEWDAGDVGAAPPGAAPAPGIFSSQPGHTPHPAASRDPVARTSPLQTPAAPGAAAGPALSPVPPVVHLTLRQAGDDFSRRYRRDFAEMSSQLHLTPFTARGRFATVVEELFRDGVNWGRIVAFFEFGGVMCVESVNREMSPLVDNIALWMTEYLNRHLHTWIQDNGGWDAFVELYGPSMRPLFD
By Kd is commonly meant a measure of binding affinity in units of concentration. Read a high Kd as a looser complex. Take GSGTMENLSRRLKVTGDLFDIMSGQT (modifications not checked) [Beclin 1 BH3D peptide, wild type]: the dissociation constant (Kd) is 10.4 µM.
Still for that read-out and setting: the result for GSGTMENLSRRLAVTGDLFDIMSGQT (modifications not checked) [Beclin 1 BH3D-derived peptide K117A] reads 24.5 µM.

A further experiment has as its target T1, γHV68 M11 residues 1-136 (murine …). Nature of the experiment: ITC (Table 4; quantity and unit in Table 1).
As to GSGTMENLSRRAKVTGDLFDIMSGQT (modifications not checked) [Beclin 1 BH3D-derived peptide L116A], the Kd amounted to 178 µM.
With GSGTMENLSRRLKVTGDLFDIMSGQT (modifications not checked) [Beclin 1 BH3D peptide, wild type], the dissociation constant Kd turned out to be 1.4 µM.
On the same count and under the same terms, the result for GSGTMENLSRRLKVTEDLFDIMSGQT (modifications not checked) [Beclin 1 BH3D-derived peptide G120E] reads 36.5 µM; that for GSGTMENASRRLKVTGDLFDIMSGQT (modifications not checked) [Beclin 1 BH3D-derived peptide L112A], 4.3 µM; that for GSGTMENLSRRLKVTGDLADIMSGQT (modifications not checked) [Beclin 1 BH3D-derived peptide F123A], 5.2 µM.
The same measure, in the same setting: the result for GSGTMENLSRRLKVTGALFDIMSGQT (modifications not checked) [Beclin 1 BH3D-derived peptide D121A] reads 1.3 µM; that for GSGTMENLSRRLAVTGDLFDIMSGQT (modifications not checked) [Beclin 1 BH3D-derived peptide K117A], 0.7 µM.
For the molecule GSGTMENLSRRLKVTEALFDIMSGQT (modifications not checked) [Beclin 1 BH3D-derived G120E+D121A double mutant peptide], the Kd was 6.4 µM.

In the next experiment the target is T2, His6-tagged Bcl-XL (residues 1-208, …). Nature of the experiment: ITC (Table 4; quantity and unit in Table 1).
The molecule GSGTMENLSRRLKVTGDLFDIMSGQT (modifications not checked) [Beclin 1 BH3D peptide, wild type] registered a dissociation constant (Kd) of 1.9 µM.
With GSGTMENASRRLKVTGDLFDIMSGQT (modifications not checked) [Beclin 1 BH3D-derived peptide L112A], the Kd was found to be 110 µM.
For GSGTMENLSRRLKVTGDLADIMSGQT (modifications not checked) [Beclin 1 BH3D-derived peptide F123A], the Kd was 408 µM.
Same read-out and setting: the result for GSGTMENLSRRLAVTGDLFDIMSGQT (modifications not checked) [Beclin 1 BH3D-derived peptide K117A] reads 18.9 µM.

The target of the next experiment is Bcl-2, P10415. Nature of the experiment: not stated in the sentence (ITC implied).
For the molecule GSGTMENLSRRLKVTGDLFDIMSGQT (modifications not checked) [Beclin 1 BH3D peptide, wild type], the dissociation constant Kd amounted to 9 µM.

Another experiment addresses KSHV Bcl-2 (KSHV). Nature of the experiment: not stated in the sentence (ITC implied).
As to GSGTMENLSRRLKVTGDLFDIMSGQT (modifications not checked) [Beclin 1 BH3D peptide, wild type], the Kd turned out to be 54 µM.

For another experiment, the target named is T1, γHV68 M11 residues 1-136 (murine …). Nature of the experiment: ITC, 25 °C.
For the molecule GSGTMENLSRRAKVTGDLFDIMSGQT (modifications not checked) [Beclin 1 BH3D-derived peptide L116A], the dissociation constant Kd turned out to be 178 µM, the ΔG was -5.11 kcal/mol, the ΔH was -8.7 kcal/mol and the ΔS is -50.3 J/K · mol.
In turn, GSGTMENLSRRLKVTGDLFDIMSGQT (modifications not checked) [Beclin 1 BH3D peptide, wild type] gave a Kd of 1.38 µM, a ΔG of -8.01 kcal/mol, a ΔH of -17 kcal/mol and a ΔS of -126 J/K · mol.
The like results for GSGTMENLSRRLKVTEDLFDIMSGQT (modifications not checked) [Beclin 1 BH3D-derived peptide G120E] were, in that order, 36.5 µM, -6.06 kcal/mol, -12.5 kcal/mol and -90 J/K · mol.
The like results for GSGTMENASRRLKVTGDLFDIMSGQT (modifications not checked) [Beclin 1 BH3D-derived peptide L112A] were, in that order, 4.33 µM, -7.32 kcal/mol, -11.3 kcal/mol and -56.1 J/K · mol.
The matching figures for GSGTMENLSRRLKVTGDLADIMSGQT (modifications not checked) [Beclin 1 BH3D-derived peptide F123A]: 5.2 µM, -7.22 kcal/mol, -14.2 kcal/mol and -97.8 J/K · mol.
With GSGTMENLSRRLAVTGDLFDIMSGQT (modifications not checked) [Beclin 1 BH3D-derived peptide K117A], the Kd is 0.66 µM, the ΔG was -8.44 kcal/mol, the ΔH is -16.5 kcal/mol and the ΔS is -113 J/K · mol.
The matching figures for GSGTMENLSRRLKVTEALFDIMSGQT (modifications not checked) [Beclin 1 BH3D-derived G120E+D121A double mutant peptide]: 6.43 µM, -7.08 kcal/mol, -14.9 kcal/mol and -110 J/K · mol.

Another experiment has as its target T2, His6-tagged Bcl-XL (residues 1-208, …). Nature of the experiment: ITC, 25 °C.
The molecule GSGTMENLSRRLKVTGDLFDIMSGQT (modifications not checked) [Beclin 1 BH3D peptide, wild type] gave a Kd of 1.95 µM, a ΔG of -7.79 kcal/mol, a ΔH of -10.4 kcal/mol and a ΔS of -36.9 J/K · mol.
For the molecule GSGTMENASRRLKVTGDLFDIMSGQT (modifications not checked) [Beclin 1 BH3D-derived peptide L112A], the dissociation constant (Kd) is 110 µM, the ΔG is -5.4 kcal/mol, the ΔH is -10.1 kcal/mol and the ΔS was -66.3 J/K · mol.
The molecule GSGTMENLSRRLKVTGDLADIMSGQT (modifications not checked) [Beclin 1 BH3D-derived peptide F123A] showed a Kd of 408 µM, a ΔG of -4.63 kcal/mol, a ΔH of -7.34 kcal/mol and a ΔS of -38 J/K · mol.
Turning to GSGTMENLSRRLAVTGDLFDIMSGQT (modifications not checked) [Beclin 1 BH3D-derived peptide K117A], the dissociation constant (Kd) turned out to be 18.9 µM, the ΔG was -6.45 kcal/mol, the ΔH is -9 kcal/mol and the ΔS was -35.8 J/K · mol.
